Key:
Assay in all cases: cell-based or functional assay
[1] = molecular target: Lck(h) (human, UniProt P06239 1-509, limits assumed)
[2] = molecular target: Lyn(h) (human, UniProt P07948 1-512, limits assumed)
[3] = molecular target: PAK5(h) (human, UniProt Q9P286 1-719, limits assumed)
[4] = molecular target: T1, CHK1(h) (human, UniProt O14757 1-476)
T1 sequence (looked up): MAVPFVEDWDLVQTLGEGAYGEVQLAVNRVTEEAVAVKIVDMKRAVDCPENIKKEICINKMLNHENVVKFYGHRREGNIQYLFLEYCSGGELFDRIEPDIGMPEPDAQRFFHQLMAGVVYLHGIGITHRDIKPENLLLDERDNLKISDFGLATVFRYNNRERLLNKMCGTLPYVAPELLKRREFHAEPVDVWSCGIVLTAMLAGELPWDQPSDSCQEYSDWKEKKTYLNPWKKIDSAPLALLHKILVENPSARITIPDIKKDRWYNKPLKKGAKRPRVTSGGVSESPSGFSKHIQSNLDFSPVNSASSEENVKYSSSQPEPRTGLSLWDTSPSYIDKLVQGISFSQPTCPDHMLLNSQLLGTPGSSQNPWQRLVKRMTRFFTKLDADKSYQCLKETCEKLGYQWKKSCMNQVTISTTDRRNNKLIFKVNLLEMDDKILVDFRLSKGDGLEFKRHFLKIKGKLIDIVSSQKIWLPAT

[5] = molecular target: CK1γ2(h) (human, UniProt P78368 1-415)
[6] = molecular target: CK1γ3(h) (human, UniProt Q9Y6M4 1-447)
[7] = molecular target: CLK2(h) (human, UniProt P49760 1-499, limits assumed)
[8] = molecular target: EGFR(T790M)(h) (human, UniProt P00533 696-1210, limits assumed)
[9] = molecular target: Ab1(M351T)(h) (human, UniProt P00519 27-1130, limits assumed)
[10] = molecular target: FGFR4(h) (human, UniProt P22455 460-802, limits assumed)
[11] = molecular target: GRK5(h) (human, UniProt P34947 1-590)
[12] = molecular target: ACK1(h) (human, UniProt Q07912 110-476, limits assumed)
[13] = molecular target: JAK3(h) (human, UniProt P52333 781-1124, limits assumed)
[14] = molecular target: MAPK1(h) (human, UniProt P28482 1-360, limits assumed)
[15] = molecular target: PKA(h) (human)
[16] = molecular target: PKCη(h) (human, UniProt P24723 1-683)
[17] = molecular target: Plk1(h) (human, UniProt P53350 1-603, limits assumed)
[18] = molecular target: T2, Bmx(h) (human, UniProt P51813 1-675, limits assumed)
T2 sequence (looked up): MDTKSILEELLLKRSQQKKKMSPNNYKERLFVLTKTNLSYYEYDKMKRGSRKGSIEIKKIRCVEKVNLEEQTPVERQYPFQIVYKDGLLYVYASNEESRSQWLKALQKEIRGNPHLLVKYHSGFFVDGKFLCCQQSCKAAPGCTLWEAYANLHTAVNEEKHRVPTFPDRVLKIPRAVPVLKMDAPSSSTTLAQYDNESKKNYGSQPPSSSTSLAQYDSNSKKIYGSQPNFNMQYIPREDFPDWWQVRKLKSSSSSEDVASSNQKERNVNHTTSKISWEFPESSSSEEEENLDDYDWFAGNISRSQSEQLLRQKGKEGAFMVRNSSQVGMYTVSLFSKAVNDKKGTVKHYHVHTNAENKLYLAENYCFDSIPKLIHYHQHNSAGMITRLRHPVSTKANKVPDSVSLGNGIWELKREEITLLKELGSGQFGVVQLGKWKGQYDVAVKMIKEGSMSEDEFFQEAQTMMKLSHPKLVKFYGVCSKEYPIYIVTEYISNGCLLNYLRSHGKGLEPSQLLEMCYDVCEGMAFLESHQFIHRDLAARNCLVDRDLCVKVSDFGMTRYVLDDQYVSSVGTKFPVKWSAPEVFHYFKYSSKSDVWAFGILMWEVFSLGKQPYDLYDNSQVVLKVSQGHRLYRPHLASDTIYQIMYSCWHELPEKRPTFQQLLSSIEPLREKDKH

[19] = molecular target: SRPK2(h) (human, UniProt P78362 1-688, limits assumed)
[20] = molecular target: Tie2(R849W)(h) (human, UniProt Q02763 771-1124, limits assumed)
[21] = molecular target: TLK2(h) (human, UniProt Q86UE8 1-772, limits assumed)
[22] = molecular target: CK1γ1(h) (human, UniProt Q9HCP0 1-422)
[23] = molecular target: CK2α2(h) (human, UniProt P19784 1-350)
[24] = molecular target: cKit(V560G)(h) (human, UniProt P10721 544-976, limits assumed)
[25] = molecular target: EGFR(L858R)(h) (human, UniProt P00533 696-1210, limits assumed)

B1: MMI-0300 (peptide)
peptide: FAKLAARLYRKALARQLGVAA
% activity [1]: -2%
% activity [2]: 69%
% activity [3]: 110%
% activity [4]: 91%
% activity [5]: 123%
% activity [6]: 125%
% activity [7]: 103%
% activity [8]: 100%
% activity [9]: 90%
% activity [10]: 28%

B2: MMI-0400 (peptide)
peptide: KAFAKLAARLYRKALARQLGVAA
% activity [11]: 131%
% activity [12]: 95%
% activity [13]: 122%
% activity [2]: 3%
% activity [14]: 100%
% activity [15]: 119%
% activity [16]: 98%
% activity [17]: 119%
% activity [18]: 26%
% activity [19]: 97%
% activity [20]: 108%
% activity [21]: 151%
% activity [4]: 87%
% activity [22]: 116%
% activity [23]: 96%
% activity [24]: 124%
% activity [25]: 52%
% activity [10]: 19%
